Results as given in article PMC10957665, “The C-terminal selenenylsulfide of extracellular/non-reduced thioredoxin reductase endows this protein with selectivity to small-molecule electrophilic reagents under oxidative conditions” (Frontiers in Molecular Biosciences, 2024).

B1: Cys73Ala mutant of hTrx1 (natural protein, human, UniProt P10599 1-105, looked up)
chain: MVKQIESKTAFQEALDAAGDKLVVVDFSATWCGPCKMIKPFFHSLSEKYSNVIFLEVDVDDCQDVASECEVKAMPTFQFFKKGQKVGEFSGANKEKLEATINELV
notes: Human cytosolic thioredoxin (hTrx1) with Cys73 replaced by Ala; also called hTrx1 mutant in which Cys73 was substituted by Ala
B2: human cytosolic thioredoxin (hTrx1) (natural protein, UniProt P10599 1-105, looked up)
chain: MVKQIESKTAFQEALDAAGDKLVVVDFSATWCGPCKMIKPFFHSLSEKYSNVIFLEVDVDDCQDVASECEVKCMPTFQFFKKGQKVGEFSGANKEKLEATINELV
notes: Human cytosolic thioredoxin (hTrx1); freshly DTT-treated, free thiol on surface Cys73; also called human cytosolic Trx; source: purified according to a previously described method (Zhai and Zhong, 2010); incubated with DTT and dialysed before use

Legend:
[1] = target: the molecule itself; experiment: cross-linking; diamide-induced covalent (disulfide/selenenylsulfide) complex: TrxR1 or a TrxR1 mutant with a 2-fold concentration of hTrx1, or one protein alone, 10 mM diamide, 30 min at room temperature; non-reducing SDS-PAGE, Coomassie stain
[2] = target: the molecule itself; experiment: cross-linking; H2O2 as thiol oxidant in place of diamide; unpublished (Zhong's observation)

Protein | stoichiometry N [1] | stoichiometry N [2]
B1 | 2 | 
B2 |  | 2
